Data from the supplement of paper PMC9170038.

Legend:
MS2 coat protein [1] = assay: apparent KD of MS2 coat protein; higher = weaker reporter binding; conditions: Eterna round: R101
Experimental: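 RNA-MaP: designed FMN/MS2 RNA switches (84 nt design region) are transcribed on-chip within common flanks and titrated with SNAP-549-labelled MS2 coat protein (about 1-3000 nM) in 100 mM Tris pH 7.5, 80 mM KCl, 4 mM MgCl2, without or with 200 uM FMN. Median apparent KD per design; activation ratio = KD,OFF / KD,ON.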

MS2 coat protein [2] = assay: apparent KD of MS2 coat protein, switch ON state; designed switch direction (-1 OFF switch, 1 ON switch): 1; higher = weaker reporter binding; conditions: FMN input: 0 or 200 uM; Eterna round: R93 (includes R88 designs)
How it was run: (§1)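 Designed RNA switches were transcribed on-chip from Illumina sequencing clusters. SNAP-549-labelled MS2 coat protein was titrated onto them in twofold steps from 0.7 or 1.5 nM to 3 µM in 100 mM Tris-HCl pH 7.5, 80 mM KCl, 4 mM MgCl2, either without or with constant ligand. Apparent KD reflects the per-design median of normalised cluster binding-curve fits.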

MS2 coat protein [3] = assay: apparent KD of MS2 coat protein, switch OFF state (with FMN for OFF switches, without FMN for ON switches); designed switch direction (-1 OFF switch, 1 ON switch): 1; higher = weaker reporter binding; conditions: FMN input: 0 or 200 uM; Eterna round: R93 (includes R88 designs)
How it was run: as §1

Row | Sequence | apparent KD of MS2 coat protein (MS2 coat protein [1]; input ligand: FMN 200 uM) [nM] | apparent KD of MS2 coat protein (MS2 coat protein [1]; input ligand: none) [nM] | apparent KD of MS2 coat protein (MS2 coat protein [2]) [nM] | apparent KD of MS2 coat protein (MS2 coat protein [3]) [nM]
1 | UUCACGGCGGGAAUAAGUGGUACUCAGGAUAUGGACUAGAAAUACAUGAGGAUCACCCAUGUGUUCCAGAAGGGAGGGCAUGCG [Tisorabea] (puzzle (switch architecture): Small Loop Same State NG 3) | 10.3 | 45.6 |  | 
2 | AAAAUGAUUUUAGGAUAUGACUCCGAAACGGAGUCAGAAGGAGGAUCACCCUUUCAAAGCUCAGCGUCGAAAGACGCUGAGCAA [#SharedSequence - ExNG1-20] (puzzle (switch architecture): Exclusion NG 1) | 1200 | 201 |  | 
3 | GCGGCCCGGGAGAAGGACAUGAGGAUCACCCAUGUCGCCGGGCCCGGGAAACCGGGCCCGGCCAUGUAGGAUAUCCCGGGCCGC [#This is a good prank] (puzzle (switch architecture): Inverted Exclusion NG 2) | 5.14 | 4.59 |  | 
4 | ACAGGUCGUGAGAAGGCGGAAAGCACCGUCGAAAGACGGUGCAAUUAAGAUCUUCGAGGAUCACCCGAGGAUAUCACGACCUGA [#SharedSequence - IExNG2: 15] (puzzle (switch architecture): Inverted Exclusion NG 2) | 654 | 75.1 |  | 
5 | GCAGCUAAUGCAGGAUAUCAGCACGUGUAGUGCUGAGAAGGGCACAUGAGGAUACCGACUGUGAUCAAUUAAUAUUAAUGCUGC [salish99#hingeEx3_55-58_003] (puzzle (switch architecture): Exclusion NG 1) | 6.87 | 9.43 |  | 
6 | CAGUCGACCAUAACAAGGUCGACUGACUUCUGAGGAUCACCCAGAAGGCGUCACCUAAUAGGUGACGAGGAUAUGGAGUGUAAA [#SharedSequence IExNG# - 7] (puzzle (switch architecture): Inverted Exclusion NG 3) | 92.7 | 32 |  | 
7 | AAGUGAAAUCAGAAGGGCUCCAGCAAAGCUGGAGCAGGAUAUGAGGAUCACCCAUGUCACCUGACGGUCGAAACGACCGUCAGG [#SharedSequence - IExNG1: 6-2] (puzzle (switch architecture): Inverted Exclusion NG 1) | 521 | 56.9 |  | 
8 | CGCGAACAGUUUUAAAAGAGGAUCACCCAUGUGGACUCAUGGUAGGAUAUCGGGAAGGAGGAAACCGAGAAGGGCUGGUGAGCC [salish99_SSNG3_019 #HINGE] (puzzle (switch architecture): Same State NG 3) | 18 | 37.5 |  | 
9 | CGCUAUGAUGGGUGUAAUAGAGCAUAGGAUAUGCUUGUACAUGAGGAUCACCCAUGUUAUAUUUUGCAGAAGGGUGCAUUUGCG [JR #DistanceFar #Hairpin #NP SLSSNG3 Sub072] (puzzle (switch architecture): Small Loop Same State NG 3) | 255 | 460 |  | 
10 | CCUGCACUUCAAGGAUAUCCAGUCGUUUCGACUGGAGAAGGUGAGGAUCACCCAUCUAGCCUGACGUUUGUCAGGCAUGCAGGU [#AddUracilToBrourdLoops 7 - Jieux - Exclusion NG1] (puzzle (switch architecture): Exclusion NG 1) | 81.7 | 84.3 |  | 
11 | UUGAAUCGAAACAUGAGGAUCACCCAUGUGUUGUAAUUGACAUAGGAUAUGUAUAUACUUUUAUAAUAGAAGGAUGACGAUACU [S-state NG3 31] (puzzle (switch architecture): Same State NG 3) | 12 | 15.8 |  | 
12 | AAGCACGAAGAUUAUUAUGAAUAAACAUGAGGAUCACCCAUGUAGGAUAUCGACUCGAAUAGAGUCGAGAAGGACAAAACGUGC [#BasePairInsertion1E] (puzzle (switch architecture): Exclusion NG 3) | 11.6 | 6.96 |  | 
13 | UAACAACAUGAGGAUCACCCAUGUCAAAUAAAUCGAGGAUAUGGGACGCAAGACGUCUUACCAGAAGGCGAAACAA [Leoratin] |  |  | 25.1 | 70.9
14 | AACAAUCUAUCUGAGGAUAUCAAGUCAAAGACAUGAGGAUCACCCAUGUGCAGGAAAACUGCACUUGAGAAGGCAGAUAGAUUGA [SS2: 1109] |  |  | 12.3 | 9.63
15 | AAAAAAAAAAGACAGGAUAUCCAAAAAAAAACAUGAGGAUCACCCAUGUAAAAAAAAAAAAAAUGGGAGAAGGGUCAAAAAAAAAA [Louisiana 5 - Jieux - Same State 2] |  |  | 21.9 | 36.5
16 | AAUAGACAUGAGGAUCACCCAUGUAGAAUUAUGGGAGGAUAUACAAAGACGAGAGUCAGAGUAGAAGGCCUAGGAA [salish99-ss1-148] |  |  | 23.6 | 71.5
17 | GAAAAACAUGAGGAUCACCCAUGUGACAACAUGGGAGGAUAUACGUGGACGAUAGUCAAAGUAGAAGGCCUAAAAG [Garnet 64] |  |  | 71.7 | 18.4
18 | UAAUAAUAAACCAAGGAUAUGGAGUUUCCAACAUGAGGAUCACCCAUGUUUAGCAUGAAAUCGAUCCAGAAGGUGGAGCCAAAUA [JR_SS002_Sub1005] |  |  | 54.1 | 102
19 | AAGAAACAUGAGGAUCACCCAUGUAGAAAUAUGGGAGGAUAUACAAGGACGAAAGUCAAGGUAGAAGGCCUAAGAA [Mat - Same State 1 - Meechl mod - D132] |  |  | 20.7 | 112
20 | GUGAGGAAGAGAGAGGAUAUCCAAAGGAAAACAUGAGGAUCACCCAUGUAAAAGGUAGGAAAUUGGGAGAAGGCUCAAGAGAGAG [salish99-ss2-067] |  |  | 40.2 | 34.7
21 | AAAAAACAUGAGGAUCACCCAUGUAAAAAUAUGGGAGGAUAUUCAAACACGAAAGUGAAAGAAGAAGGCCUAAAAA [SS! MT 18] |  |  | 15 | 139
22 | GCACCACAUGAGGAUCACCCAUGUAAAACGUAGCAAGGAUAUGGGCACGGAUAAUUCCGAUCAGAAGGUGUAACGC [Gemaditera] |  |  | 105 | 35.2
23 | AAGAUACAUGAGGAUCACCCAUGUCACCUCACACGAGGAUAUCUGUGCAGUACUCAGUACGGAGAAGGCGUGGAAA [Mat - Same State 1 - Hyphema mod - D98] |  |  | 25 | 56.4
24 | AAUACACAUGAGGAUCACCCAUGUAGAAAGAAGGCAGGAUAUCAGAUCCACAUGUGAUAAUGAGAAGGGCCAAUAA [SS 1 Tesla 9] |  |  | 21.1 | 102
25 | CAUCAUGCGCCUAAGGAUAUGUCUCACAAGACAUGAGGAUCACCCAUGUAGAAUAAAUAAACGAUGCAGAAGGUGGAGUGCAUGC [Vetimaor] |  |  | 56.7 | 361
26 | GGGAGACAUGAGGAUCACCCAUGUGAGAAGAGGCGAGGAUAUCGAAAAAAAAAAAAAAAACGAGAAGGCGCGAGAA [salish99-SS1-003] |  |  | 23.3 | 38
27 | CGCAGGAAGAGAGAGGAUAUCCAAAGGAAAACAUGAGGAUCACCCAUGUAAAAGGUAGGAAAUUGGGAGAAGGCUCAAGAGAGAG [salish99-ss2-100] |  |  | 34.3 | 40.9
